Measured values reported in paper doi:10.1101/2024.08.05.606605v1.

Test system: O=[N+]([O-])c1ccc(O[C@@H]2O[C@H](CO)[C@@H](O)[C@H](O)[C@H]2O)cc1
Assay: purified protein
Settings: 50 mM sodium acetate pH 5.5, 55 °C

| Substance | Km [µM] | kcat [s⁻¹] |
| --- | --- | --- |
| WT-AtGH1 (Acetivibrio thermocellus ATCC 27405) | 2420 ± 170 | 10.08 |
| WT-AtGH1 (Acetivibrio thermocellus ATCC 27405; G168W) | 2230 ± 130 | 9.1175 |
| WT-AtGH1 (Acetivibrio thermocellus ATCC 27405; G168W/S242L) | 1320 ± 110 | 12.38 |
| WT-AtGH1 (Acetivibrio thermocellus ATCC 27405; S242L) | 1790 ± 110 | 7.0875 |
| WT-AtGH1 (Acetivibrio thermocellus ATCC 27405; S242W) | 2100 ± 100 | 27.115 |
